Tested on: MS2 coat protein
Experiment: apparent KD of MS2 coat protein; designed switch direction (-1 OFF switch, 1 ON switch): -1; higher = weaker reporter binding
Summary of the method: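 For each design, the apparent KD is the median over clusters of curves fitted to normalised cluster fluorescence. Clusters held RNA switches with common flanks, transcribed on Illumina chips by stalled E. coli RNA polymerase. These were titrated with SNAP-549-labelled MS2 coat protein, doubling from 0.7 or 1.5 nM to 3 µM, without input, with 200 uM small-molecule ligand, or with an oligonucleotide input.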

[1] = input ligand: microRNA oligo, concentration not stated
[2] = Eterna round: R95, input ligand: microRNA oligo, concentration not stated
[3] = Eterna round: R95, input ligand: FMN 200 uM
[4] = Eterna round: R95, input ligand: none

Sequence	apparent KD of MS2 coat protein (input ligand: FMN 200 uM) [nM]	apparent KD of MS2 coat protein (input ligand: none) [nM]	apparent KD of MS2 coat protein [1] [nM]	apparent KD of MS2 coat protein [2] [nM]	apparent KD of MS2 coat protein [3] [nM]	apparent KD of MS2 coat protein [4] [nM]
CUUUUGUGAGGAUAUUAGUAGUAAGUAAAUAAAAUUAUUACUAAGAAGGCACAUGAGGAUCACCCAUGUUCCUC [EX4 #81] (Eterna round: R97, puzzle: Exclusion 4)	108	58				
CAUUGUUAUCGAGGAUAUCGUAUUGAGAUUCUACGAGAAGGCGGACUAAACAUGAGGAUCACCCAUGUGAGACGGAUGCUUGGG [Ex NG1 #32] (Eterna round: R96, puzzle: Exclusion NG 1)	36.7	25.7	22.3			
CCUAGUUGGUAAGGAUAUCCUACAUUAUUCUGACCCGUGCAAGCUACAUGAGGAUCACCCAUGUGGGAGAAGGUGCGUUAACGU [Design 8] (Eterna round: R96, puzzle: Exclusion NG 2)	55.7	55.1	35.2			
CUGCUGGAGCUUUGCUUUGGUCGUACAUGAGGAUCACCCAUGUAGGAUAUGGUAGGAUUUGCUUGCUAGAAGGAUAGAGUGGUC [salish99_ExNG3_r04_610] (Eterna round: R96, puzzle: Exclusion NG 3)	92.7	54.5	36.1			
CACCCUGAUGUCAGGAUAUGCGCGUCGCGCCUCGAGCAGAAGGGACAUGAGGAUCACCCAUGUUGUCUCUUGGG [Orisvedixe] (puzzle: Brourd's mod of Exclusion 4)				44.5		
GUAAUUAUAUAGGAUAUCGAAAGUAUAAUUUAACGAGAAGGAUGAACAUGAGGAUCACCCAUGUGGUAUCAUGG [JL-ex6-3.08] (puzzle: Exclusion 6)				321	66.4	219
ACAAGCUUUUAGAUUCUUAACAUGAGGAUCACCCAUGUGCUCGUCUUACCGGCCGGCGGGCCGCCGGCCGGGCUUGU (Eterna round: R97, puzzle: Sensor, turn-off variant 1)	18.5	18.5				
CACGUCUGAGGAUAUCGUUUUUUGUACAUGAGGAUCACCCAUGUCCAAUUUUGUAUAUUACGAGAAGGCAGUGGAA [JR_E5_Sub090] (puzzle: Exclusion 5)				12.3		
AUAAAGCAAGGAUAUACAUGAGGAUCACCCAUGUAUGAAAGUUGGCCGCGGUUUAGAUGUAGAAGGUGCAAGGG [EX3 B.8] (Eterna round: R97, puzzle: Exclusion 3)	27.6	28.1				
GUCAGCUCGUGAGGAUAUACAUGAUAGAUCGAUUAAUUAAUUAAUUUAACAUGAGGAUCACCCAUGUAGAAGGCACGAGCUGAC [ENG2/1-A1] (Eterna round: R96, puzzle: Exclusion NG 2)			30.9			
CGCGAGGGAGGAUAUGCACUCAGUGAUCACGCCCAAAUUCGACAUGAGGAUCACCCAUGUAGAAGGCCCGGCUA [EX2 B.15] (Eterna round: R97, puzzle: Exclusion 2)	21.1	19				
ACAUGAGGAUCACCCAUGUCUGGCUGGUCCGCUCCGGCUGUUGAGGAUAUAGCUCGGUGUCCGCGCUAGAAGGUGAGGGCUGGC [Aenatbe mod 34] (Eterna round: R96, puzzle: Exclusion NG 3)	32.4	31.9	19.5			
CUCGGACAUGAGGAUCACCCAUGUGAGGAUAUGGUGCUAUCGUCAUUAGACGAUUGCGUUAGAAGGCAUAUUUU [LRO-Excl1-30] (puzzle: Exclusion 1)				24.4		
CCUGAGGUUUGGUAGAAAACAUGAGGAUCACCCAUGUAUGUGCAGGAUAUCGACCGGCUCGCUGCCGAGAAGGGCAUCUACAUA [Eternabot solution 31] (Eterna round: R96, puzzle: Exclusion NG 3)	45.4	36.9	24.8			
AGUUCACAUGAGGAUCACCCAUGUGAGGAUAUGGUUUCGCUGGCCGUAGCCAGUGGAACCAGAAGGCGCGUGAU [Mat - Exclusion 1 - JL Mod - D15] (Eterna round: R97, puzzle: Exclusion 1)	52.1	51				
AAUAAGCGAGGAUAUGCGGGCGGGUGCGGCCAGCCGAUGUGACAUGAGGAUCACCCAUGUAGAAGGCGCAAUAA [Excls2-VI] (puzzle: Exclusion 2)				11.4	15.9	10.7
CCCUCACAUGAGGAUCACCCAUGUCAGGAUAUUCGAACGGUGUGUUUUUGGCCAGUUGGAAGAAGGGACAUAAA [Riinesbe] (Eterna round: R96, puzzle: Exclusion 1)	278	32.2	29			
UGAUCUAGCGGAGGAUAUACAUGAGGAUCACCCAUGUAGAAUCCAUGACCGUAGUCGUGGAUCGUGUAGAAGGCCGCUAGAUCU [JL ENG2 3.71] (Eterna round: R96, puzzle: Exclusion NG 2)	21.8	12.5	9			

Sequence	apparent KD of MS2 coat protein (input ligand: FMN 200 uM) [nM]	apparent KD of MS2 coat protein (input ligand: none) [nM]	apparent KD of MS2 coat protein [1] [nM]	apparent KD of MS2 coat protein [2] [nM]	apparent KD of MS2 coat protein [3] [nM]	apparent KD of MS2 coat protein [4] [nM]
AUGUGACAUGAGGAUCACCCAUGUGAGGAUAUCAUGCUUCGUAGUAAACUACGAAGUGUGAGAAGGCACAUAAC [Omei Ex1 E7] (Eterna round: R97, puzzle: Exclusion 1)	357	80.2				
GUCGUACAUGAGGAUCACCCAUGUGAGGAUAUAGGUAGCAACCAGAAAUGGUUGCUACCUAGAAGGCGCAUGAU [Malcxlusion 10 - Jieux - Exclusion 1] (Eterna round: R97, puzzle: Exclusion 1)	529	104				
AAUGAUUCAGGAUAUACAUGAGGAUCACCCAUGUUGGUGUCCCUCCCAAAGUUGCAGUGUAGAAGGGAGUCCCG [Tigezaonbi] (puzzle: Exclusion 3)				132		
UCGGCGCGAGGAUAUACGUUUGCUUUUUUGUGUCGUUGCGUACAUGAGGAUCACCCAUGUAGAAGGCGCGCCGC [Apr-15 SS2-24] (puzzle: Exclusion 2)				16		
UCGUGAUUAGAGGAUAUAUUAAGAGUCAGAACAAUAGAAGGCUAAACAUGAGGAUCACCCAUGUAAAUGUGAAA [JR_Ex6_Sub060] (Eterna round: R97, puzzle: Exclusion 6)	172	35.5				
GGGUGUGAAGGAUAUACAUGAGGAUCACCCAUGUGAGAGGAGAAUGUUGAGGAGGUUGGUAGAAGGUCAGGAGG [JR_Exclusion3_Sub010] (Eterna round: R96, puzzle: Exclusion 3)	202	165	105			
AAUAACAAGCCGAUCCUCCACAUGAGGAUCACCCAUGUGCUCGUCUUGUAAAGUACUAUCACGAAAGUGAUAGUACA (Eterna round: R97, puzzle: Sensor, turn-off variant 1)	39.2	44				
CCUCGACAUGAGGAUCACCCAUGUGAGGAUAUGACCUUAAAAGCGUGAGCAGUUUCUAUCAGAAGGCGCGUAGG [salish99_ex1_r4_071] (Eterna round: R97, puzzle: Exclusion 1)	15.9	16				
UUUAUGUCAGGAUAUGAGUAGUAGAACAAUAGUACUACUACUCAGAAGGGACAUGAGGAUCACCCAUGUUCUUC [Fiskers Ex 4 Super stable 44 mod 23] (puzzle: Exclusion 4)				16.3		
GAGAAUUUAUAGGAUAUCGUAUGCAUAAUUUAACGAGAAGGAUGAACAUGAGGAUCACCCAUGUGGUAUCAUGG [salish99_ex6_r3_001] (puzzle: Exclusion 6)				192	88.9	122
UUUAAGUCAGGAUAUACAUGAGGAUCACCCAUGUAAAAUUUUAAUUUAAUUUGAAGGUGUAGAAGGGACAAAUU [Ex3 #37] (Eterna round: R97, puzzle: Exclusion 3)	23	24.6				
AAGUACCGUCACGAUAGUGAUGGUACAACAAGCAAAUGUACAUGAGGAUCACCCAUGUCCUCUUUUGCUCGUCUUGU [Sensor 3 - 100] (puzzle: Sensor v3, turn-off variant 2)				30.2	155	
GGAAAGGUAGGAUAUACGAAGAAAAAGGGUAGAAGAAUAACACAUGAGGAUCACCCAUGUAGAAGGACCAAAGC [Mat - Exclusion 2 - Mod of my Tesla design - D14] (puzzle: Exclusion 2)				25.1	96.8	25.8
GUAGAGUGAGGAUAUACGAGAUCGAAAGAUCGGCGAUCCAAACAUGAGGAUCACCCAUGUAGAAGGCACUCUAC [Eli x2 4.006] (Eterna round: R97, puzzle: Exclusion 2)	202	140				
GGUGGACAUGAGGAUCACCCAUGUGAGGAUAUCGGCUAUCUACUCGCUGUCGGUUGCUCGAGAAGGCACAUUGU [Exclusion 1 V93] (puzzle: Exclusion 1)				151		
GGAAAGGUAGGAUAUACGAAGAAAAAGGGUAGAAGAAGAACACAUGAGGAUCACCCAUGUAGAAGGACCAAAGC [Mat - Exclusion 2 - Mod of my Tesla design - D15] (puzzle: Exclusion 2)				20.9	56.5	23.9
UGAAUACGUGUUAGGAUAUGGUUUGGUAUUUCGGGCUAGAAGGGACAUGAGGAUCACCCAUGUAAUUGAUAGGU [-16.2, -13.6 kcal, 27% A] (Eterna round: R97, puzzle: Brourd's mod of Exclusion 4)	52.4	38.5				
